± gives the standard error. Fewer inactive variants are shown than the library holds.
B1: glmS ribozyme (parent)
chain: AUAAAAGCGCCAGAACUACAGAAAUGUAGUUGACGAGGAGGAGGUUUAUCGAAUUUUCGGCGGAUGCCUCCAAA

Variants of: B1
Assay: self-cleavage kobs at 2500 uM GlcN6P; higher = faster cleavage; RNA array
Conditions: with glucosamine-6-phosphate
Outline: (§1)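 Tracking of barcoded ribozyme variants used a hybridised Cy3 probe at 37 °C, after in situ transcription by E. coli RNA polymerase on sequenced MiSeq chips. The flowed solution held 40 μM to 10 mM glucosamine-6-phosphate in HEPES/KCl/Mg(OAc)2 buffer, and imaging ran over ~14 h. kobs was taken from exponential decay fits of normalised per-tile medians, and kcat and KM from weighted Michaelis–Menten fits.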

| Variant | self-cleavage kobs at 2500 uM GlcN6P [s⁻¹] |
| --- | --- |
| U30C C61U U65A | < 1e-05 |
| A12U A48U C70G | 0.000115 ± 5e-05 |
| C11A C16U A23C A39G U54C C58U | < 1e-05 |
| G9A G13U U57C | < 1e-05 |
| C16U U57A | 6.81e-05 ± 2.8e-05 |
| C11A A14G G29U | 5.93e-05 ± 2.7e-05 |
| U46G C50G C68G | 4.12e-05 ± 2e-05 |
| G7U C8U G41C C70G | < 1e-05 |
| A42G U65C | 0.000535 ± 0.00016 |
| G40U G43U C50G | < 1e-05 |
| A6C A52U G60A | < 1e-05 |
| A14G G41A G60U | < 1e-05 |
| C16A C34A C70U | < 1e-05 |
| G38U C50G G63C | 7.85e-05 ± 2.7e-05 |
| G9U A15C C68U | < 1e-05 |
| A12U G29U U30A U31A | 0.000126 ± 4.8e-05 |
| A6G U31A U49A | < 1e-05 |
| A15U U30G C68G | 4.51e-05 ± 1.8e-05 |
| G38C U46G C68G | < 1e-05 |
| G37U U46G A52U U57A | < 1e-05 |
| U49C U57G | < 1e-05 |
| A36C G37A G38A U56A C68G | 6.64e-05 ± 2.3e-05 |
| G7U G35U G37C U46C C68A | < 1e-05 |
| G7A C10U G35U G43U | < 1e-05 |
| C8A G13C U46G U56A U69C C70G | < 1e-05 |

| Variant | self-cleavage kobs at 2500 uM GlcN6P [s⁻¹] |
| --- | --- |
| G13C C71U | 9.01e-05 ± 1.5e-05 |
| A12C A33G C34U C50A A64U C70G | 0.00011 ± 4.2e-05 |
| G9A A12G U54A C58G C61G C70U | 0.000354 ± 0.00012 |
| A12G G37U A53C G62A A64U C68G | < 1e-05 |
| C11G G13U G29C | < 1e-05 |
| A12U A14U G66A | 0.000704 ± 0.00016 |
| G32U A53C U55A | 5.38e-05 ± 1.8e-05 |
| A15U C16U U49A C70G | 4.48e-05 ± 1.7e-05 |
| G29U A36G A42G G43C G62U U65C U69C | < 1e-05 |
| G29C A33G A53U A64G U69G | 0.000129 ± 4.1e-05 |
| A14C A39G C58G | 5e-05 ± 1.9e-05 |
| A14U G29U C50G C68U | 0.000156 ± 3.8e-05 |
| C10G G44U C71A | < 1e-05 |
| A14G A42G G44A U55G | 0.000136 ± 4.1e-05 |
| G40U G51C C58U G60U G66U | < 1e-05 |
| G13U U31G G37C A48C | < 1e-05 |
| A14G G29A G44A | 6.19e-05 ± 2.1e-05 |
| G29U G32A A53C | 0.000152 ± 3e-05 |
| A6G C11G A33U G59C | < 1e-05 |
| G29U G40A U65A | 3.42e-05 ± 1.6e-05 |
| C8A G41C C58U | < 1e-05 |
| A12C G37U G38U | < 1e-05 |
| C16A G32A G37U | < 1e-05 |
| C8A A33C U45C G59A | < 1e-05 |

Variants of: B1
Assay: self-cleavage kobs at 10000 uM GlcN6P; higher = faster cleavage; RNA array
Conditions: with glucosamine-6-phosphate
Outline: as §1

| Variant | self-cleavage kobs at 10000 uM GlcN6P [s⁻¹] |
| --- | --- |
| A33U G40A | 4.3e-05 ± 5.8e-06 |
| A14U A39C U65C | 6.04e-05 ± 1.6e-05 |
| G9A G13U U57C | < 1e-05 |
| G13U G38C C58U C61U | < 1e-05 |
| C16G U47A C61G | < 1e-05 |
| C16U U57A | 0.000194 ± 4.1e-05 |
| A53G G63C | < 1e-05 |
| A6C A15U C34A A39G U65A | < 1e-05 |
| G40A A64U | 2.07e-05 ± 9.5e-06 |
| A36U G43C U54C U55C G63C C71A | < 1e-05 |
| G59U G62A A64G | < 1e-05 |
| G9U A15C C68U | < 1e-05 |
| A12U G29U U30A U31A | 0.000361 ± 0.00013 |
| C10U A33U G37C A53U U57A A64G | < 1e-05 |
| A6U A12U C16U A36G | < 1e-05 |
| A12G U45A C71U | 0.00191 ± 0.0004 |
| U49C U57G | < 1e-05 |
| U45C U65G C70U | 0.000225 ± 6.1e-05 |
| G44C C50U U56A | < 1e-05 |

| Variant | self-cleavage kobs at 10000 uM GlcN6P [s⁻¹] |
| --- | --- |
| C16A G44A C67A | 9.58e-05 ± 2.5e-05 |
| C16A G51U U65A | < 1e-05 |
| A42C C50U C68A C70A | < 1e-05 |
| G29A C34G C67U | < 1e-05 |
| G13C C71U | 0.000149 ± 1.6e-05 |
| A12G U55A C68U | 0.00042 ± 0.0001 |
| U31A A36U U47G C70G | 5.95e-05 ± 1.5e-05 |
| C8G G9U G66C C68G | < 1e-05 |
| A14C A39G C58G | 8.88e-05 ± 1.6e-05 |
| G7U G29C A48G C50G C71A | 0.00097 ± 0.00047 |
| A12C A15U U31C | 6.96e-05 ± 1.7e-05 |
| G43A C50A A64U | < 1e-05 |
| U55A A64U C71A | 4.3e-05 ± 1.9e-05 |
| A12U A15U C16A | 0.00105 ± 0.00024 |
| A12C G37A A39C | 0.000849 ± 0.00015 |
| G29C C61G C67G | < 1e-05 |
| G35C G51U G62U | < 1e-05 |
| G29U G32A A53C | 0.000364 ± 0.0001 |
| C11U A15G A52G | 0.0001 ± 2.4e-05 |

From the supplement of paper PMC7125110
